Experiment [1] addresses Pertuzumab heavy chain Fab construct (H2) L45A (VH L45A). Nature of the experiment: LCCA, SPR tag read-out.
Experiment [2] has as its target Pertuzumab heavy chain Fab construct (H2) L45P (VH L45P). Nature of the experiment: LCCA, SPR tag read-out.
The target in experiment [3] is CAT-2200 heavy chain Fab construct (H1), wild type. Nature of the experiment: LCCA, SPR tag read-out.
Experiment [4] concerns the target CAT-2200 heavy chain Fab construct (H1) L45F (VH L45F). Nature of the experiment: LCCA, SPR tag read-out.
Experiment [5] addresses CAT-2200 heavy chain Fab construct (H1) Q39D (VH Q39D). Nature of the experiment: LCCA, SPR tag read-out.
Experiment [6] has as its target CAT-2200 heavy chain Fab construct (H1) Q39E (VH Q39E). Nature of the experiment: LCCA, SPR tag read-out.
The target in experiment [7] is Pertuzumab heavy chain Fab construct (H2) Q39R (VH Q39R). Nature of the experiment: LCCA, SPR tag read-out.
Experiment [8] concerns the target CAT-2200 heavy chain Fab construct (H1) Q39E (VH Q39E). Nature of the experiment: LCCA, SPR tag read-out. The source holds these as a separate data set.
The target of experiment [9] is Pertuzumab heavy chain Fab construct (H2) Q39K (VH Q39K). Nature of the experiment: LCCA, SPR tag read-out.
In experiment [10] the target is CAT-2200 heavy chain Fab construct (H1) Q39K (VH Q39K). Nature of the experiment: LCCA, SPR tag read-out.
The target of experiment [11] is Pertuzumab heavy chain Fab construct (H2) Q39D (VH Q39D). Nature of the experiment: LCCA, SPR tag read-out.
The target in experiment [12] is Pertuzumab heavy chain Fab construct (H2) Q39E (VH Q39E). Nature of the experiment: LCCA, SPR tag read-out.
The target in experiment [13] is Pertuzumab heavy chain Fab construct (H2) Q39D (VH Q39D). Nature of the experiment: LCCA, SPR tag read-out. This is another data set of the same source.
For experiment [14], the target named is Pertuzumab heavy chain Fab construct (H2) Q39E (VH Q39E). Nature of the experiment: LCCA, SPR tag read-out. The source holds these as a separate data set.
The target in experiment [15] is CAT-2200 heavy chain Fab construct (H1) Q39K (VH Q39K). Nature of the experiment: LCCA, SPR tag read-out. This is another data set of the same source.
Experiment [16] deals with Pertuzumab heavy chain Fab construct (H2) Q39D (VH Q39D). Nature of the experiment: LCCA, SPR tag read-out. The source holds these as a separate data set.
Experiment [17] deals with Pertuzumab heavy chain Fab construct (H2) Q39E (VH Q39E). Nature of the experiment: LCCA, SPR tag read-out. This is another data set of the same source.
In experiment [18] the target is T1, Recombinant human IL-17A (human, UniProt Q16552 20-155, limits assumed). Nature of the experiment: SPR. For orientation: In SPR one partner is held on a chip, and binding of the other changes the refractive index at the surface.
T1 sequence (Q16552 20-155 limits assumed): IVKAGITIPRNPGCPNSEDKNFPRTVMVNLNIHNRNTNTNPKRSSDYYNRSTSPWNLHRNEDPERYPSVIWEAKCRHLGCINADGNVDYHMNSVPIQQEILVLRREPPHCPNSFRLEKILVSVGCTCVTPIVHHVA
Experiment [19] addresses T2, His-tagged recombinant human CD-19 (human, UniProt P15391 20-291, limits assumed).
T2 sequence (looked up): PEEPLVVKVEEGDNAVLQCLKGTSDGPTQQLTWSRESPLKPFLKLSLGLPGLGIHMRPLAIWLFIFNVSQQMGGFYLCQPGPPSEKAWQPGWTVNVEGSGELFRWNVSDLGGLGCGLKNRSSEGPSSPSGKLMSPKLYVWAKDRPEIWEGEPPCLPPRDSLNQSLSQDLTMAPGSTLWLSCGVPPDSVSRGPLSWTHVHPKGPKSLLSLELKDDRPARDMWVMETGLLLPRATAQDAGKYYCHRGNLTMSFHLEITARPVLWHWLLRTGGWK
Nature of the experiment: SPR.

In experiment [20] the target is T2, His-tagged recombinant human CD-19. Nature of the experiment: SPR. This is another data set of the same source.
Experiment [21] deals with T1, Recombinant human IL-17A. Nature of the experiment: SPR. The source holds these as a separate data set.
Experiment [22] has as its target T3, His-tagged recombinant human CD-19 (human, UniProt P15391 20-291, limits assumed).
T3 sequence (looked up): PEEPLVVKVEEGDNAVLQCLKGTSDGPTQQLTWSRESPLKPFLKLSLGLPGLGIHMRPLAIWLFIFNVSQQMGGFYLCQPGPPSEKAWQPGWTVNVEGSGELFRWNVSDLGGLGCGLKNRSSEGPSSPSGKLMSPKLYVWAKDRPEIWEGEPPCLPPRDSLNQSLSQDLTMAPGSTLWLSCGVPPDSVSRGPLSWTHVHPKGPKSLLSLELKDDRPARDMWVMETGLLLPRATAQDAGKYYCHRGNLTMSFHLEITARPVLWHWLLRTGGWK
Nature of the experiment: SPR. This is another data set of the same source.

Experiment [23] deals with T3, His-tagged recombinant human CD-19. Nature of the experiment: SPR. The source holds these as a separate data set.
Experiment [24] addresses His-tagged Influenza B Hemagglutinin (B/Brisbane/60/2008) (Influenza B (B/Brisbane/60/2008)).

Read-outs that look alike come from different tables or passages of the source.

As usually defined, the Kd is the free concentration of one partner at which half of the binding sites on the other are occupied at equilibrium, for simple one-to-one binding.

B1: Pertuzumab kappa light chain construct (L2) P44F, HA-tagged (other, not shown: small tags and cut ends)
light: DIQMTQSPSSLSASVGDRVTITCKASQDVSIGVAWYQQKPGKAFKLLIYSASYRYTGVPSRFSGSGSGTDFTLTISSLQPEDFATYYCQQYYIYPYTFGQGTKVEIKRTVAAPSVFIFPPSDEQLKSGTASVVCLLNNFYPREAKVQWKVDNALQSGNSQESVTEQDSKDSTYSLSSTLTLSKADYEKHKVYACEVTHQGLSSPVTKSFNRGEC
As for B1, the “H2L2:H2L1 normalized median ratio (H2L2 part)” value came out at 59% in experiment [1] and 67% in [2]. The “H2L2:H2L1 normalized median scalar value ln(r1/f1)” value in [1] was 0.37; in [2], 0.72. Also, the entries for the “H1L1:H1L2 normalized median ratio (H1L2 part)” value in experiment [3] and in [4] were 38% and 35%, respectively.

B2: Pertuzumab kappa light chain construct (L2) Q38E, HA-tagged (other, not shown: small tags and cut ends)
light: DIQMTQSPSSLSASVGDRVTITCKASQDVSIGVAWYQEKPGKAPKLLIYSASYRYTGVPSRFSGSGSGTDFTLTISSLQPEDFATYYCQQYYIYPYTFGQGTKVEIKRTVAAPSVFIFPPSDEQLKSGTASVVCLLNNFYPREAKVQWKVDNALQSGNSQESVTEQDSKDSTYSLSSTLTLSKADYEKHKVYACEVTHQGLSSPVTKSFNRGEC
For B2, the “H1L1:H1L2 normalized median ratio (H1L2 part)” value in [5] was 36%; in experiment [6], 31%; in [8] it was 24%. The “H2L2:H2L1 normalized median ratio (H2L2 part)” value in [7] and in experiment [9] was 54% throughout. The “H2L2:H2L1 normalized median scalar value ln(r1/f1)” value in experiment [7] was 0.15.

B3: Pertuzumab kappa light chain construct (L2) Q38K, HA-tagged (other, not shown: small tags and cut ends)
light: DIQMTQSPSSLSASVGDRVTITCKASQDVSIGVAWYQKKPGKAPKLLIYSASYRYTGVPSRFSGSGSGTDFTLTISSLQPEDFATYYCQQYYIYPYTFGQGTKVEIKRTVAAPSVFIFPPSDEQLKSGTASVVCLLNNFYPREAKVQWKVDNALQSGNSQESVTEQDSKDSTYSLSSTLTLSKADYEKHKVYACEVTHQGLSSPVTKSFNRGEC
Consider B3, for which the “H1L1:H1L2 normalized median ratio (H1L2 part)” value is 35% in experiment [10], 33% in experiment [3] and 29% in [15]. Moreover, the “H2L2:H2L1 normalized median ratio (H2L2 part)” value was found to be 79% in [11]; 78% in [12]; 47% in [13]; 47% in experiment [14]; 75% in experiment [16]; 75% in experiment [17]. Further, the “H2L2:H2L1 normalized median scalar value ln(r1/f1)” value is 1.35 in experiment [11]; 1.29 in [12]; -0.11 in experiment [13]; -0.11 in experiment [14]; 1.09 in experiment [16]; 1.09 in experiment [17].

B4: Pertuzumab kappa light chain construct (L2) Q38D, HA-tagged (other, not shown: small tags and cut ends)
light: DIQMTQSPSSLSASVGDRVTITCKASQDVSIGVAWYQDKPGKAPKLLIYSASYRYTGVPSRFSGSGSGTDFTLTISSLQPEDFATYYCQQYYIYPYTFGQGTKVEIKRTVAAPSVFIFPPSDEQLKSGTASVVCLLNNFYPREAKVQWKVDNALQSGNSQESVTEQDSKDSTYSLSSTLTLSKADYEKHKVYACEVTHQGLSSPVTKSFNRGEC
Turning to B4, the “H1L1:H1L2 normalized median ratio (H1L2 part)” value in [6] came to 31%. Moreover, in experiment [7], the “H2L2:H2L1 normalized median ratio (H2L2 part)” value was 56% and the “H2L2:H2L1 normalized median scalar value ln(r1/f1)” value came to 0.23.

B5: Design 3113 bispecific antibody, System B (CAT-2200 H1/L1 & SGN-CD19a H2/L2) (bispecific antibody)
chain 1: not shown
chain 2: NFMLTQPHSVSESPGKTVTISCTRSSGSLANYYVQWYQQRPGSSPTIVIFANNQRPSGVPDRFSGSIDSSSNSASLTISGLKTEDEADYYCQTYDPYSVVFGGGTKLTVLGQPKAAPSVTLFPPSSEELQANKATLDCLISDFYPGAVTVAWKADSSPVKAGVETTTPSKQSNNKYAASSTLSLTPEQWKSHRSYSCQVTHEGSTVEKTVAPTECS
chain 3: not shown
chain 4: EIVLTQSPATLSLSPGERATLSCSASSSVSYMHWYQQKPGQAPRLLIYDTSKLASGIPARFSGSGSGTDFTLTISSLEPEDFAVYYCFQGSVYPFTFGQGTKLEIKRTVAAPSVFIFPPSDEQLKSGTARVGCLLNNFYPREAKVQWKVDNALQSGNSQESVTEQDSKDSTYSLRSTLTLSKADYEKHKVYACEVTHQGLSSPVTKSFNRGEC
B5: the “Difference in H1L1 log(KD) from wild type” value in experiment [18] is -0.2. Besides, the Kd came to 216 nM in [19] and 0.44 nM in [21]. Further, the “Difference in H2L2 log(KD) from wild type” value (“Difference in H2L2 log(KD)” below) in [20] was found to be 0.02.

B6: Design 2901 bispecific antibody, System C (CR8071 H1/L1 & SGN-CD19a H2/L2) (bispecific antibody)
chain 1: QVQLVQSGAEVKKPGASVRVSCRASGYIFTESGITWVRQAPGQGLEWMGWISGYSGDTKYAQKLQGRVTMTKDTSTTTAYMELRSLRYDDTAVYYCARDVQYSGSYLGAYYFDYWSPGTLVTVSSASTKGPSVFPLAPSSKSTSGGTAALGCLVTDYFPEPVTVSWNSGALTSGVHTFPADLQSSGLYSLDSVVTVPSSSLGTQTYICNVNHKPSNTKVDKKVEPKSCDKTHTCPPCPAPELLGGPSVFLFPPKPKDTLMISRTPEVTCVVVDVSHEDPEVKFNWYVDGVEVHNAKTKPREEQYNSTYRVVSVLTVLHQDWLNGKEYKCKVSNKALPAPIEKTISKAKGQPREPQVYVYPPSRDELTKNQVSLTCLVKGFYPSDIAVEWESNGQPENNYKTTPPVLDSDGSFALVSKLTVDKSRWQQGNVFSCSVMHEALHNHYTQKSLSLSPG
chain 2: not shown
chain 3: not shown
chain 4: EIVLTQSPATLSLSPGERATLSCSASSSVSYMHWYQQKPGQAPRLLIYDTSKLASGIPARFSGSGSGTDFTLTISSLEPEDFAVYYCFQGSVYPFTFGQGTKLEIKRTVAAPSVFIFPPSDEQLKSGTASVGCLLNNFYPREAKVQWKVDNALQSGNSQESVTEQDSKDSTYSLDSTLTLSKADYEKHKVYACEVTHQGLSSPVTKSFNRGEC
On to B6, for which the “Difference in H2L2 log(KD)” value in experiment [22] is 0.21 log(KD). The values for the Kd in experiment [23] and in experiment [24] were 41.9 nM and 0.64 nM, respectively.

B7: Design 3890 bispecific antibody, System C (CR8071 H1/L1 & SGN-CD19a H2/L2) (bispecific antibody)
chain 1: QVQLVQSGAEVKKPGASVRVSCRASGYIFTESGITWVRQAPGQGLEWMGWISGYSGDTKYAQKLQGRVTMTKDTSTTTAYMELRSLRYDDTAVYYCARDVQYSGSYLGAYYFDYWSPGTLVTVSSASTKGPSVFPLRPSSKSTSGGTAALGCLVKDYFPEPVTVSWNSGALTSGVHTFPAVLKSSGLYSLSSVVTVPSSSLGTQTYICNVNHKPSNTKVDKKVEPKSCDKTHTCPPCPAPELLGGPSVFLFPPKPKDTLMISRTPEVTCVVVDVSHEDPEVKFNWYVDGVEVHNAKTKPREEQYNSTYRVVSVLTVLHQDWLNGKEYKCKVSNKALPAPIEKTISKAKGQPREPQVYVYPPSRDELTKNQVSLTCLVKGFYPSDIAVEWESNGQPENNYKTTPPVLDSDGSFALVSKLTVDKSRWQQGNVFSCSVMHEALHNHYTQKSLSLSPG
chain 2: not shown
chain 3: not shown
chain 4: EIVLTQSPATLSLSPGERATLSCSASSSVSYMHWYQQKPGQAPRLLIYDTSKLASGIPARFSGSGSGTDFTLTISSLEPEDFAVYYCFQGSVYPFTFGQGTKLEIKRTVAAPSVFIFPPKDERLKSGTASVVCLLNNFYPREAKVQWKVDNALQSGNSQESVTEQDSKDSTYSLSSRLTLSKADYEKHKVYACEVTHQGLSSPVTKSFNRGEC
As to B7, in experiment [22], the “Difference in H2L2 log(KD)” value was 0.22 log(KD). For the same molecule, the Kd is 40.9 nM in experiment [23] and 0.44 nM in [24].

For the origin of these results see US20190338048A1 (published 2019).
